Columns and labels:
Assay in all cases: cell-based or functional assay
[1] = target: endothelin receptor A (ETA) (UniProt Q61614)
[2] = target: endothelin receptor B (ETB) (UniProt P48302)
[3] = target: calcium/calmodulin-dependent protein phosphatase calcineurin

endothelin receptor B (ETB), sequence (P48302 27-442 limits assumed): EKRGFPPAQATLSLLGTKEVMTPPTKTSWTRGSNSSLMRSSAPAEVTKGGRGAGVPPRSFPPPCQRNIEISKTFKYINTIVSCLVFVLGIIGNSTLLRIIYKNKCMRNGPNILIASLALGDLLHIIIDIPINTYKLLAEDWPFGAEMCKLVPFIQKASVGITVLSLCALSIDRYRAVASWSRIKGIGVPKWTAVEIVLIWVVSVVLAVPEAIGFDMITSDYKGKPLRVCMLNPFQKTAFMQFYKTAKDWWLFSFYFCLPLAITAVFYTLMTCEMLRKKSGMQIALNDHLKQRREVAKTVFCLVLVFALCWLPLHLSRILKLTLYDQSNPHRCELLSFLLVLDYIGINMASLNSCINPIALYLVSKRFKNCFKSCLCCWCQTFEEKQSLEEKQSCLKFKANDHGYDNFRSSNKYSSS
endothelin receptor A (ETA), sequence (Q61614 21-427 limits assumed): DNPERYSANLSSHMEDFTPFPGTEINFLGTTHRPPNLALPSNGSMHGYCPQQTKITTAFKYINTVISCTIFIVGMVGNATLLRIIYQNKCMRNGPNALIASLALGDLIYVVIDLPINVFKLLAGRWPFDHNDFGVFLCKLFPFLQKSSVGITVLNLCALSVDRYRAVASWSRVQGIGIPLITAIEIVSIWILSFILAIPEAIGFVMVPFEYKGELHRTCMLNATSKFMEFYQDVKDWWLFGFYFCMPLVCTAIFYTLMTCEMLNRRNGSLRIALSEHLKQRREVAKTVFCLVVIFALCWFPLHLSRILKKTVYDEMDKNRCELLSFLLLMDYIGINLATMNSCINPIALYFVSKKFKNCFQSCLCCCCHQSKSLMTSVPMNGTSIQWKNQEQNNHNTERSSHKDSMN

BQ-123 (peptide) was tested. Which ANF expression (RT-PCR) after ET-1 stimulation, relative to ET-1 without compound (100%); BQ123 1 µM [1] did it give?
Its ANF expression (RT-PCR) after ET-1 stimulation, relative to ET-1 without compound (100%); BQ123 1 µM is 50%.

What about the BNP expression (RT-PCR) after ET-1 stimulation, relative to ET-1 without compound (100%); BQ123 1 µM [1] of the same substance?
The BNP expression (RT-PCR) after ET-1 stimulation, relative to ET-1 without compound (100%); BQ123 1 µM was 60%.

With BQ-788 (peptide) as the substance, how does the ANF expression (RT-PCR) after ET-1 stimulation, relative to ET-1 without compound (100%); BQ788 1 µM [2] read?
Its ANF expression (RT-PCR) after ET-1 stimulation, relative to ET-1 without compound (100%); BQ788 1 µM is 70%.

What about the BNP expression (RT-PCR) after ET-1 stimulation, relative to ET-1 without compound (100%); BQ788 1 µM [2] of the same substance?
The BNP expression (RT-PCR) after ET-1 stimulation, relative to ET-1 without compound (100%); BQ788 1 µM was 70%.

With Cyclosporin A (peptide) as the substance, how does the ANF expression (RT-PCR) after ET-1 stimulation, relative to ET-1 without compound (100%); cyclosporin A 1 µg/ml [3] read?
The ANF expression (RT-PCR) after ET-1 stimulation, relative to ET-1 without compound (100%); cyclosporin A 1 µg/ml was 70%.

And the ANF expression (RT-PCR) after PE stimulation, relative to PE without compound (100%); cyclosporin A 1 µg/ml [3]?
Its ANF expression (RT-PCR) after PE stimulation, relative to PE without compound (100%); cyclosporin A 1 µg/ml is 70%.

And the BNP expression (RT-PCR) after ET-1 stimulation, relative to ET-1 without compound (100%); cyclosporin A 1 µg/ml [3]?
Its BNP expression (RT-PCR) after ET-1 stimulation, relative to ET-1 without compound (100%); cyclosporin A 1 µg/ml is 50%.

What about the BNP expression (RT-PCR) after PE stimulation, relative to PE without compound (100%); cyclosporin A 1 µg/ml [3] of the same substance?
Its BNP expression (RT-PCR) after PE stimulation, relative to PE without compound (100%); cyclosporin A 1 µg/ml is 70%.

— US8318488
